Source: US20240101708A1 (Genentech, published 2024)

T1: recombinant human RNF43 extracellular domain (human, UniProt Q68DV7 24-197)
T1 construct: extracellular domain; also called huRNF43; human RNF43 ECD
T1 sequence (looked up): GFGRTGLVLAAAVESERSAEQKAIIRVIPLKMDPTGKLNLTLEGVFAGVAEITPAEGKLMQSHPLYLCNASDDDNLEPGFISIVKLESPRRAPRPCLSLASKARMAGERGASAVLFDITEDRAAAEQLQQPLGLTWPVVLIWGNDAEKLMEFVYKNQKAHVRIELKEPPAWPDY


Target: T1, recombinant human RNF43 extracellular …
Experiment: SPR Biacore 8K; antibody captured on Protein A; RNF43 ECD analyte; 25 C
Protocol: Antibodies were screened for binding to recombinant human RNF43 and ZNRF3 ECDs using a Biacore® 8 k instrument (GE Life Sciences). Briefly, antibodies diluted to 1 μg/ml in 1×HBSP buffer (Cytiva, BR100368) were captured on a Sensor Chip Protein A (GE Life Sciences) using a flow rate of 10 μl/minute and a contact time of 60 seconds. Binding of recombinant human RNF43 and ZNRF3 extracellular domain to the captured antibodies was analyzed at 25° C. using a single cycle kinetics method with a flow rate of 30 μl/minute, a contact time of 180 seconds and a dissociation time of 600 seconds. The concentration of recombinant human RNF43 and ZNRF3 extracellular domain in the single cycle kinetics were 0, 0.8, 4, 20, and 100 nM. Between cycles, the chip was regenerated using 10 mM Glycine HCl pH 1.5 injected for 30 seconds at 30 μl/minute. Data were evaluated using Biacore 8K Evaluation software (GE Life Sciences). Kinetic constants were obtained using a 1:1 binding model with the parameter RI set to zero. Cell surface ligase antibodies with sub-nanomolar affinities may provide advantages in certain instances, for example, in the degradation efficiency which is correlated with the durability of the ternary complex as shown in FIG. 5D.

| Binder | Kd [nM] |
| --- | --- |
| RNF43-35 (antibody, V domains shown, Rat clone; VH/VL only) VH: QVQLKESGPGLVQPSQTLSLTCTVSGFSLTTYSVHWVRQHSGKNLEWMGRMWTAGDTSYNSAFTSRLNIFRDTSKSQVFLKMNSLQTEDTGTYYCARSSYTSGYPFDSWGQGVMVTVSS VL: DTVLTQSPALAVSPGERVTISCRASESVSKLMHWYQQRPGQQPQLLIYLTSHLASGVPARFSGSGSGTDFTLTIDPVEADDTATYYCQQSRNDPTFGAGTKLELK | 0.07 |
| RNF43-90 (antibody, V domains shown, Rat clone; VH/VL only) VH: QVQLKESGPGLVQPSQTLSLTCTVSGFSLTSYSVHWVRQHSGNRLEWMGRMWSAGDTSFNSAFTSRLNITRDTSKSQVFLKMNSLQTEDTGTYYCVRSFYNAGYPFDYWGQGVMVTVSS VL: DTVLTQSPALAVSPGERVTISCRASDSVIKLMNWYQQKPGQRPKLLIYLASHLASGVPARFSGSGSGTDFTLTIDPVETDDTATYYCQQSRNDPTFGPGTKLELK | 0.29 |
| RNF43-23 (antibody, V domains shown, Rabbit clone; VH/VL only) VH: QEQVVESGGGLVQPEGSLTLTCKGSGFDFSGNVLCWVRQAPGKGLEWIGCIATGIGSTAYASWAKGRFTITRGTSLNTVDLKMTSLTAADTATYFCARYVSGSEYYNFWGPGTLVTVSS VL: AYDMTQTPASVEVAVGGTVTIKCQASQSISSFLAWYQQKPGQPPMLLIYKASTLASGVPSRFKGSGSGTQFTLTISGVECADAATYYCQQGYSWNGVDNTFGGGTEVVVK | 85 |
| RNF43-69 (antibody, V domains shown, Rat clone; VH/VL only) VH: EVQLVESGGGLVQPGRSLKLSCAASGFTFSDYYMAWVRQAPKKGLEWVASITYEGSSTYYGDSVKGRFTISRDNAKSTLYLQMNSLRSEDTATFYCARHLDYGYDYAWYFDFWGPGTMVTVSS VL: DIVLTQSPTTLSVTPGETVSLSCRTSHSIGTNLHWYQQKTNESPRLLIKYASQSISGIPSRFSASGSGTDFTLNINNVEFDDVSSYFCQQTQSWPLTFGSGTKLEIK | 16.8 |
| RNF43-75 (antibody, V domains shown, Rat clone; VH/VL only) VH: EVQLVESGGGLVQPGRSLKLSCAASGFTFSDHYMAWVRQAPKKGLEWVASITYEGSSTYYGDSVKGRFTISRDNAKSTLYLQMNSLRSEDTATFYCARHLDYGYDYAWSFDFWGPGTMVTVSS VL: DIVLTQSPIILSVTPGETVSLSCRTSHSIGTNLHWYQQKTNESPRLLINYASQSISGIPSRFSASGSGTDFTLNINNVEFEDVASYYCQQTQRWPLTFGSGTKLEIK | 4.65 |
| RNF43-21 (antibody, V domains shown, Rabbit clone; VH/VL only) VH: QSLEESGGDLVKPGASLTLTCTASGFSFSSSYYMCWVRQAPGKGLEWIACIYAGSSGSTYYASWAKGRFTVSKTSSTTVTLQMTSLTAADTATYFCARYTYGSGSDSYFNLWGPGTLVTVSS VL: AYDMTQTPASVEAAVGGTVTIQCQASQSIGSYLAWYQQKPGQPPKLLIYRASTLSSGVPSRFKGSGSGTQFTLTISDLECADAATYYCQQGYSITNLDNGFGGGTEVVVK | 10.3 |
| RNF43-106 (antibody, V domains shown, Rat clone; VH/VL only) VH: QIQLGQSGPELTKPGESVKISCKASGYTFSDYPIHWVKQAPGKGLKWMGWINTYTGKPTFADDFKGRFVFSLEASASTANLQISNLKNEDTATYFCALGPISTVFYAMDAWGQGTSVTVSS VL: DIQMTQSPSFLSASVGDRVTINCKASQNINKYLNWYQQKLGEAPKRLIYNTNNLQTGIPSRFSGSGSGTDYTLTISSLQPEDFATYFCLQHNSFPYTFGAGTKLELK | 15.6 |
| RNF43-210 (antibody, V domains shown, Rat clone; VH/VL only) VH: QIQLVQSGPELKKPEESVKISCKASGYIFTDYLIHWVKQAPGEGLKWMGWINTYTGKPTYADDFKGRFVFSLEASASTAILQISNLKNEDTATYFCALGPITTVVYVMDAWGQGTSVTVSS VL: DIQMTQSPSFLSASVGDRVTINCKASQNINKYLNWYQQKLGEAPKRLIYNTNNLQTDIPSRFSGSGSGADYTLTINSLQPEDFATYFCLQHNSFPYTFGAGTKLELK | 13.4 |
| RNF43-123 (antibody, V domains shown, Rat clone; VH/VL only) VH: QIQLVQSGPELKKPGESVKISCKASGYTFTDYPMHWVKQAPGKGLKWMGWINTYTGKPTYADDFKGRFVFSLEASANTANLQISNLKNDDTATYFCALGPISTVFYAVDAWGQGTSVTVSS VL: DIQMTQSPSFLSASVGDRVTINCKASQNINKYLNWYQQKVGEAPKRLMYNTNNLQTGIPSRFSGSGSGTDYTLTISSLQPEDFATYFCLQHNSFPYTFGPGTELELK | 13.4 |
| RNF43-152 (antibody, V domains shown, Rat clone; VH/VL only) VH: QVTLKESGPGILQPSQTLSLTCTFSGSSLSTYGMGVGWIRQPSGKGLEWLANIWWDDDKYYNPSLKNRLTISKDTSNNQSFLKIANVDTADTATYYCARIDGTYNYFDYWGQGVMVTVSS VL: DVVLTQTPSRLSATIGQSVSISCRSSQSLLDSYGNTYLSWFLQRPGQSPQRLIFLVSNLGSGVPNRVSGSGSGTDFTLKISGVEAEDLGVYYCMQTTHDPLTFGSGTKLEIK | 17.8 |
| RNF43-13 (antibody, V domains shown, Rabbit clone; VH/VL only) VH: QSLEESGGGLVKPGGTLTLTCKASGIDFSGYYYMCWVRQAPGKGLEWIACIYTTSGSAWYASWAKGRFTISITTSLNTVTLQMTSLTATDTATYFCVRYANYGGYNYPEFGVLWGPGTLVTVSS VL: AYDMTQTPASVEVAVGATVTIKCQASEDIYNLLAWYQQKPGQPPKLLIYRASKLASGVPSRFSGSGSGTEFTLTISSVQCDDAATYYCQQGYSISNVENPFGGGTEVVVK | 99.6 |
| RNF43-6 (antibody, V domains shown, Rabbit clone; VH/VL only) VH: QSLEESGGRLVTPGTPLTLTCTVSGFSLSAFGMNWVRQAPGKGLEWIGYISAGGSAVYPNWAEGRFTISKASTTVTLKMTSLTTEDTATYFCVRGGYVGSTNSLWGPGTLVTVSS VL: AAVLTQTPSPVSAAVGGTVSISCQSSKSVHNNNWLAWYQQKPGQPPKLLIYGASTLASGVPSRFKGSGSGTQFTLTISDVQCDDAATYYCSGGYSSIIDNGFGGGTDVVVE | 10.3 |
| RNF43-33 (antibody, V domains shown, Rat clone; VH/VL only) VH: QEQLKESGPGLVQPSQTLSLTCTVSGFSLTSYNVHWVRQPPRKGLEWMGRMRYNGDTSYNSALKSRLSISRDTSKNQVFLKMNSLQTDDTGTYYCARGPLWDYWGQGVMVTVSS VL: DVVLTQTPPTLSATIGQSVSVSCRSSQSLLHSNGNTYLNWLLQRPGQPPQLLIYLVSRLESGVPNRFSGSGSGTDFTLKISGVEAEDLGVYYCVQSTHAPYTFGAGTKLELK | 63 |
| RNF43-14 (antibody, V domains shown, Rabbit clone; VH/VL only) VH: QSVEESGGRLVTPGTPLTLTCTVSGIDLSSYAMGWVRQAPGKGLEYIGFIYASGSTYYASWAKGRFTISKTSTTVDLKITSPTTEDTATYFCARDSSETINYFNIWGPGTLVTVSL VL: NIVMTQTPSPVSGAVGGTVTIKCQASQSISNWLAWYQQKPGQPPKVLIYRASTLASGVSSRFKGSGSGTEFTLTISDLECADAATYYCQQGYYISYLDNAFGGGTEVVVK | 0.8 |
| RNF43-117 (antibody, V domains shown, Rat clone; VH/VL only) VH: QVSLKESGPGMLQPSQTLSLTCTFSEFSLSTYGLGVGWIRQPSGKGLEWLANIWWDDDKYYNPSLKNRLTISKDTSNNQAFLKITNVDTADTATYYCARIDGRWHYFDYWGQGDRVIVSS VL: DIVLTQTPSILSATIGQSVSISCRSTQSLLDSDGNTYLYWFLQRPGQSPQRLIYLVSNLGSGVPNRFSGSGSGTDFTLKISGVEAEDLGFYYCMQGAHTPLTFGSGTKLEIK | 19.8 |
| RNF43-201 (antibody, V domains shown, Rat clone; VH/VL only) VH: QVTLKEYGPGILQPSQTLSLTCTFSGFSLRTYGMGVGWIRQPSGKGLEWLTNIWWDDDKYYNPSLKNRLTISKDTSNNQAFLKITNVDTEDSATYYCARIDGTFNYFDYWGQGVMVTVSS VL: DVVLTQTPSRLSATIGQSVSISCRSSQSLLDSDGNTYLYWFLQRPGQSPQRLIYLVSNLGSGVPNRVSGSGSGTDFTLKISGVEAEDLGIYYCLQATHAPLTFGSGTKLEIK | 9.9 |
| RNF43-9 (antibody, V domains shown, Rabbit clone; VH/VL only) VH: QSLEESGGDLVQPEGSLTLTCTASGFSFSSSCYMCWVRQAPGKGLEWIACINTGSSGSTYYASWAKGRFTISKTSSTTVTLQMTILTAADTATYFCARGYAGYTGYGQFNLWGPGTLVTVSS VL: QIVMTQTPASVEAAVGGTVTIKCQASQSISNYLAWYQQKPGQRPKLLIYDASKLASGVPSRFKGSGSGTQFTLTISGVECADAATYYCQQGYTMNNVDNAFGGGTEVVVK | 1.8 |
| RNF43-22 (antibody, V domains shown, Rabbit clone; VH/VL only) VH: QEQLEESGGDLVKPGASLTLTCTASGFSVSNSYYMCWVRQAPGKGLEWIACINTGSSGSTYYASWAKGRFTISKTSSTTVTLQMTTLTAADTATYFCARGYAGYAGYGQFNLWGPGTLVTVSS VL: AYDMTQTPASVEVAVGGTVTIKCQASQSISSYLAWYQQKPGQRPKVLIYDVSKLASGVPSRFKGSGSGTQFTLTISGVECADAATYYCQQGYSMSNVDNTFGGGTEVVVK | 0.5 |
| RNF43-107 (antibody, V domains shown, Rat clone; VH/VL only) VH: EVQPVESGGGLVQPGRSLKLSCPASGFTFSNYDMAWVRQAPTKGLEWVASISPSGGRTYYRDSVKGRFTISRDNSKSTLYLQMDSLRSEDTATFYCATHRYYSYFDFWGQGVMVTVSS VL: DIQMTQSPASLSASLGETISIDCRTSEDIYNNLAWYQQKSGRSPQLLISATNRLQDGVPSRFSGSGSGTQYSLKISGMQPEDEGVYFCLQGSKYPYTFGTGTKLELK | 0.341 |
